The results in this text go back to paper PMC12123872.

Series [1] deals with POLR2A fragment Ile1231-Lys1350 (UniProt P24928 1231-1350). The series is described as follows: EMSA. Background: Mobility shift assays separate free from complexed probe on a gel.
Series [2] has as its target T1, RAD21 (UniProt O60216 1-631).
T1 sequence: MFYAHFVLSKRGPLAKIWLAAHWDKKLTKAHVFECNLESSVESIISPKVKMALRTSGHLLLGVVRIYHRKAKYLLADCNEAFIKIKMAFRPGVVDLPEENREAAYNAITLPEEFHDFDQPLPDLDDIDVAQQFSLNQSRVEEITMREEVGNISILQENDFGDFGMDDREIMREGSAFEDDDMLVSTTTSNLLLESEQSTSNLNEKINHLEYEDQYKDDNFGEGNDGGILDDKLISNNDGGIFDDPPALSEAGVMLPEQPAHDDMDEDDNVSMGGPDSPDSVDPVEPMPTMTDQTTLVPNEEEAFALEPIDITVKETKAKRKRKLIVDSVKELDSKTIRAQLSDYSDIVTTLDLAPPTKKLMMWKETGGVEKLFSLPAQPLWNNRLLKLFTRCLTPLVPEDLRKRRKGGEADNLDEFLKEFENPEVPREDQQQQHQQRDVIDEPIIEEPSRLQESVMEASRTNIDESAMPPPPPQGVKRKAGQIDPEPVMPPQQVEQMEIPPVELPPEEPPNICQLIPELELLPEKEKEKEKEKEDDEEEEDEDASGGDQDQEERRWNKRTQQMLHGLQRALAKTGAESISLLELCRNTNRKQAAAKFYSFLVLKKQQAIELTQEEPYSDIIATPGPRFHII
The series is described as follows: EMSA.

POLR2A fragment Ile1231-Lys1350, sequence (P24928 1231-1350): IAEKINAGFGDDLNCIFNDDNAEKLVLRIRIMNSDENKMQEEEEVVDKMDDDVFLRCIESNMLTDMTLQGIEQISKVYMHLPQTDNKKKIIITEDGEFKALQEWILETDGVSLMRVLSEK

B1: rs1950834-G probe (dsDNA)
DNA 1: TCGGAGTTTGGCCTTCCGGCTCTCCAACTCAGATC
DNA 2: GATCTGAGTTGGAGAGCCGGAAGGCCAAACTCCGA
As for B1, the binding result in series [1] and in series [2] was “binds” in each case.
